Target: endogenous ARID2 (293T cells) (UniProt Q68CP9 2-1835, limits assumed)
Assay: immunoprecipitation of endogenous BAF/PBAF components in 293T cells
Method: For other immunoprecipitations, primary antibodies were incubated with lysates for 2 hr followed by Protein A magnetic beads (Life Technologies, 10001D).

Sequence of endogenous ARID2 (293T cells) (Q68CP9 2-1835 limits assumed): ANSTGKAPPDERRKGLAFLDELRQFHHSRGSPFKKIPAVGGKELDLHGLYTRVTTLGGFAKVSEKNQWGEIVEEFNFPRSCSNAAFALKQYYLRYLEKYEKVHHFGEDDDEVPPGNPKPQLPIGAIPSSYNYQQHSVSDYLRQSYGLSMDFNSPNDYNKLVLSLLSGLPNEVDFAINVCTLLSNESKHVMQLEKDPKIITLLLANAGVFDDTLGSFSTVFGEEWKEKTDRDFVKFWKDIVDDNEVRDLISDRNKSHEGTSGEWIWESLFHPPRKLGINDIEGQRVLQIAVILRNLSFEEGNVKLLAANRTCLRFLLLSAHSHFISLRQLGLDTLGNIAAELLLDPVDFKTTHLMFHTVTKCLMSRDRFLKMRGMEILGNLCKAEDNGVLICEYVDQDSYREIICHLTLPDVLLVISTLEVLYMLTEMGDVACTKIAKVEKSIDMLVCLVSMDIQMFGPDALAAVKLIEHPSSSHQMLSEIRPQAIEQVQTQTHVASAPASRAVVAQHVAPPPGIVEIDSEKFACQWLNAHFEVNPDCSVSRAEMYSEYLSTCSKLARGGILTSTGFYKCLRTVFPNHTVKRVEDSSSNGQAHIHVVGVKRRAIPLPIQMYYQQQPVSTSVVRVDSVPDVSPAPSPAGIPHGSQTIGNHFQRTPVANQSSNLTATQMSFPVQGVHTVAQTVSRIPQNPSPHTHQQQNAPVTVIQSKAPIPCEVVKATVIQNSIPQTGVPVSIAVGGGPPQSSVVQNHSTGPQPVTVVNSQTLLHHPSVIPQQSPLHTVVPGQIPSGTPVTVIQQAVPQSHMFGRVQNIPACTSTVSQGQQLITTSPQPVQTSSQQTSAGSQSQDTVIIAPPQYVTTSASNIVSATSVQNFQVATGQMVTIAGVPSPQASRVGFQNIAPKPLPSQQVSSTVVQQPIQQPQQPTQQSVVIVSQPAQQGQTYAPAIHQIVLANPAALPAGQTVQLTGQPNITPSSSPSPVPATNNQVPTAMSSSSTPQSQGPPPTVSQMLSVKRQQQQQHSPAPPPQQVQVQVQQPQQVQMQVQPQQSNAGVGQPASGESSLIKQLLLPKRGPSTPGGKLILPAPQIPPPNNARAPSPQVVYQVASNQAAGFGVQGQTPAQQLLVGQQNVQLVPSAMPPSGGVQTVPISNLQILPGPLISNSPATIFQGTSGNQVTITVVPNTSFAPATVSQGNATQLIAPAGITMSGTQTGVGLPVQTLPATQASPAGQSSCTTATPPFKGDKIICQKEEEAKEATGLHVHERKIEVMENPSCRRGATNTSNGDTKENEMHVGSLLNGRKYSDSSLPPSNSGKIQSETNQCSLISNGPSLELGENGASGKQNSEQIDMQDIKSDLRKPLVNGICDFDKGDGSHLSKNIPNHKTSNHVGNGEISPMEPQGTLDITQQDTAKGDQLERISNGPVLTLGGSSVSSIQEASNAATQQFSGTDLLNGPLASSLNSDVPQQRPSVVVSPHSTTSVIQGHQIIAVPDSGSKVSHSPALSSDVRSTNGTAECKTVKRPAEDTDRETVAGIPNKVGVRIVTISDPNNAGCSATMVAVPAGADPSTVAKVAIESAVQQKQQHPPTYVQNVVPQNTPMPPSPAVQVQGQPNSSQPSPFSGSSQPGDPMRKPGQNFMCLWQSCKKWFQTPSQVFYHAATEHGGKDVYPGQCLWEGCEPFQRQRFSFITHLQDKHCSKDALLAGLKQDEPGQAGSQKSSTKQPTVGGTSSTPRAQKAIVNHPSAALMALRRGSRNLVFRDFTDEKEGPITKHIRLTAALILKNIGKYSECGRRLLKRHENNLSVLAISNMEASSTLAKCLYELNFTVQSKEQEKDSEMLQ

binding result: no binding
B1: endogenous bromodomain-containing protein 9 (BRD9) (other, human, UniProt Q9H8M2 1-597, looked up)
chain: MGKKHKKHKAEWRSSYEDYADKPLEKPLKLVLKVGGSEVTELSGSGHDSSYYDDRSDHERERHKEKKKKKKKKSEKEKHLDDEERRKRKEEKKRKREREHCDTEGEADDFDPGKKVEVEPPPDRPVRACRTQPAENESTPIQQLLEHFLRQLQRKDPHGFFAFPVTDAIAPGYSMIIKHPMDFGTMKDKIVANEYKSVTEFKADFKLMCDNAMTYNRPDTVYYKLAKKILHAGFKMMSKQAALLGNEDTAVEEPVPEVVPVQVETAKKSKKPSREVISCMFEPEGNACSLTDSTAEEHVLALVEHAADEARDRINRFLPGGKMGYLKRNGDGSLLYSVVNTAEPDADEEETHPVDLSSLSSKLLPGFTTLGFKDERRNKVTFLSSATTALSMQNNSVFGDLKSDEMELLYSAYGDETGVQCALSLQEFVKDAGSYSKKVVDDLLDQITGGDHSRTLFQLKQRRNVPMKPPDEAKVGDTLGDSSSSVLEFMSMKSYPDVSVDISMLSSLGKVKKELDPDDSHLNLDETTKLLQDLHEAQAERGGSRPSSNLSSLSNASERDQHHLGSPSRLSVGEQPDVTHDPYEFLQSPEPAASAKT
notes: Endogenous protein in cell lysates; also called bromodomain-containing factor 9

From patent publication US20200129532A1 (SALK INSTITUTE FOR BIOLOGICAL STUDIES, published 2020)
